Legend:
[1] = biological target: T1, recombinant human Pro-Factor D (human, UniProt P00746 20-253); experiment: capture ELISA: recombinant Factor D captured by plate-bound goat polyclonal AF1824; hybridoma supernatant diluted two-fold; OD450
T1 construct: also used for the endogenous pro-Factor D detected in 3MC patient serum; also called pro CFD; hPro-CFD
Experimental: Hybridoma supernatants were first screened for binding to immobilized recombinant human mature Factor D-His. […] ELISA plates were coated with polyclonal anti-human factor D antibody AF1824 (R&D Systems). Hybridoma supernatants were diluted two-fold in PBS, 0.05% Tween 20 (PBST). Supernatant from NS-1 myeloma cell line (NS-1 sup) was included as a matrix control to determine the level of assay background.

[2] = biological target: T1, recombinant human Pro-Factor D; experiment: sandwich ELISA: Factor D titrated (ug/ml Df) on plate-bound goat polyclonal AF1824; purified recombinant human IgG4 antibody as detection antibody; OD450
Text: An HRP-tagged anti-mouse secondary antibody followed by TMB substrate was used to develop the assay.

[3] = biological target: T2, recombinant human mature Factor D (human, UniProt P00746 26-253); experiment: BLI (Octet ForteBio), 20 nM human IgG4 antibody on anti-human sensors, antigen 111 nM
T2 construct: also called mature CFD; hCFD
Experimental: Affinities of candidate antibodies to human mature-Factor-D versus human pro-Factor D were determined as follows.
Association and dissociation constants were determined by Octet Fortebio.

[4] = biological target: T2, recombinant human mature Factor D; experiment: ELISA: antibody titrated 3-fold from 3 ug/ml on plate coated with 1 ug/ml recombinant human mature Factor D; HRP anti-mouse, rat or human secondary; OD450
[5] = biological target: T2, recombinant human mature Factor D; experiment: capture ELISA: recombinant Factor D captured by plate-bound goat polyclonal AF1824; hybridoma supernatant diluted two-fold; HRP goat anti-mouse IgG Fc; OD450
Experimental: The specificity of anti-human pro-CFD hybridomas were further analyzed as follows. […] ELISA plates were coated with polyclonal anti-human factor D antibody AF1824 (R&D Systems). Hybridoma supernatants were diluted two-fold in PBS, 0.05% Tween 20 (PBST). […] Hybridoma supernatants and control samples were allowed to bind to captured pro or mature Factor D for one hour at room temperature. After washing three times with PBST, 100 μL/well of HRP-goat anti-mouse IgG Fc gamma secondary antibody (Jackson ImmunoResearch) diluted in PBST was added and incubated for 1 hour at room temperature. After washing three times with PBST, TMB substrate (ThermoFisher), 100 μL/well, was added. After 4 minutes the reaction was stopped with 50 μL/well of 1N H2SO₄, then read at 450 nm on a Biotek™ ELISA plate reader.

binding result [2] | Kd [3] [nM] | binding result [5] | Binder | other results
 |  |  | 6G6, hybridoma supernatant (antibody, V domains shown, Mouse hybridoma antibody) VH: QITLKESGPGILQSSQTLSLTCSFSGISLTTSGMGVSWIRQPSGKGLEWLAHIYWDDEKHYHPSLKSRLTISKDASRNQVFFRILSVDTADTATYYCALRYYGYRSFMDYWGQGTSVTVSS VL: DVLMTQSPLSLPVSLGDQASIFCRSNQSIVHSNGNTYFEWYLQKPGQSPKLLIYKVSNRFSGVPDRFSGSGSGTDFTLRISRVEAEDLGVYYCFQGSHVPPTFGGGTKLEIKR | binding result [1]: no binding
no binding | 14.3 |  | 6G6, purified recombinant, human IgG4 (antibody, V domains shown, Mouse variable regions on human IgG4 (S228P) and human kappa constant regions) VH: QITLKESGPGILQSSQTLSLTCSFSGISLTTSGMGVSWIRQPSGKGLEWLAHIYWDDEKHYHPSLKSRLTISKDASRNQVFFRILSVDTADTATYYCALRYYGYRSFMDYWGQGTSVTVSS VL: DVLMTQSPLSLPVSLGDQASIFCRSNQSIVHSNGNTYFEWYLQKPGQSPKLLIYKVSNRFSGVPDRFSGSGSGTDFTLRISRVEAEDLGVYYCFQGSHVPPTFGGGTKLEIKR | 
no binding | 24.1 |  | 27B3, purified recombinant, human IgG4 (antibody, V domains shown, Mouse variable regions on human IgG4 (S228P) and human kappa constant regions) VH: QVTLKESGPGILQSSQTLSLTCSFSGISLNISGMGVSWIRQPSGKGLEWLAHIYWDDEKHYNPSLKRRLTISKDASRNQVFFRISSVDSADTATYYCALRYYGYGSIMDYWGHGTSVTVSS VL: DVLMTQTPLSLPVSLGDQASISCRSSQSIVHSNGNTYFEWYLQKPGQSPKLLIYKVSNRFSGVPDRFSGSGSGTDFTLKISRVEAEDLGVYYCFQGSHVPPTFGGGTKLEIKR | 
no binding | 2.3 |  | 49G3, purified recombinant, human IgG4 (antibody, V domains shown, Mouse variable regions on human IgG4 (S228P) and human kappa constant regions) VH: QVTLKESGPGILQSSQTLSLTCSFSGISLSSSGMGVSWIRQPSGKGLEWLAHIYWDDEKHYNPSLKSRLTISKDASRNQIFLKIISVDTADTATYYCALRYYGYNYVMHYWGQGTSVTVSS VL: DVLMTQTPLSLPVSLGDQASISCRSSQSILHSNGNTYFEWYLQKPGQSPKLLIYKVSNRFSGVPDRFSGSGSGTDFTLKISRVEAEDLGVYYCFQGSHVPPTFGGGTKLEIKR | 
 |  |  | 27B3, hybridoma supernatant (antibody, V domains shown, Mouse hybridoma antibody) VH: QVTLKESGPGILQSSQTLSLTCSFSGISLNISGMGVSWIRQPSGKGLEWLAHIYWDDEKHYNPSLKRRLTISKDASRNQVFFRISSVDSADTATYYCALRYYGYGSIMDYWGHGTSVTVSS VL: DVLMTQTPLSLPVSLGDQASISCRSSQSIVHSNGNTYFEWYLQKPGQSPKLLIYKVSNRFSGVPDRFSGSGSGTDFTLKISRVEAEDLGVYYCFQGSHVPPTFGGGTKLEIKR | binding result [1]: no binding
 |  |  | 49G3, hybridoma supernatant (antibody, V domains shown, Mouse hybridoma antibody) VH: QVTLKESGPGILQSSQTLSLTCSFSGISLSSSGMGVSWIRQPSGKGLEWLAHIYWDDEKHYNPSLKSRLTISKDASRNQIFLKIISVDTADTATYYCALRYYGYNYVMHYWGQGTSVTVSS VL: DVLMTQTPLSLPVSLGDQASISCRSSQSILHSNGNTYFEWYLQKPGQSPKLLIYKVSNRFSGVPDRFSGSGSGTDFTLKISRVEAEDLGVYYCFQGSHVPPTFGGGTKLEIKR | binding result [1]: no binding
 |  |  | 10G1, hybridoma supernatant (antibody, V domains shown, Mouse hybridoma antibody) VH: QVTLKESGPGILQSSQTLSLTCSFSGVSLSSSGMGVSWIRQPSGKGLEWLAHIYWDDEKHYNPSLKSRLTISKGASRNQVFLKIISVDTADTATYYCALRYYGYNSIMHYWGQGASVTVSS VL: DVLMTQTPLSLPVSLGDQASISCRSSESIVHSNGNTYLEWYLQKPGQSPKLLIYKVYNRFSGVPDRFSGSGSGTDFTLKISRVEAEDLGVYYCFQGSHVPPTFGGGTKLEIKR | binding result [1]: no binding
 |  |  | 58F5, hybridoma supernatant (antibody, V domains shown, Mouse hybridoma antibody; also called 58GF5) VH: QVTLKESGPGILQSSQTLSLTCSFSGISLNTSIMGVSWIRQPSGKGLEWLAHIYWDDEKHYNPSLKSRLTISKDASRNQVFLKIISVDTADTATYYCALRYYGYNYVMHYWGQGTSVTVSS VL: DVLMTQTPLSLPVSLGDQASISCRSSQSIVHSNGNTYLEWYLQKPGQSPKLLIYKVSNRFSGVPDRFSGSGSGTDFTLKISRVEADDLGVYYCFQGSHVPPTFGGGTKLEIKR | binding result [1]: no binding
no binding | < 0.001 |  | 58F5, purified recombinant, human IgG4 (antibody, V domains shown, Mouse variable regions on human IgG4 (S228P) and human kappa constant regions) VH: QVTLKESGPGILQSSQTLSLTCSFSGISLNTSIMGVSWIRQPSGKGLEWLAHIYWDDEKHYNPSLKSRLTISKDASRNQVFLKIISVDTADTATYYCALRYYGYNYVMHYWGQGTSVTVSS VL: DVLMTQTPLSLPVSLGDQASISCRSSQSIVHSNGNTYLEWYLQKPGQSPKLLIYKVSNRFSGVPDRFSGSGSGTDFTLKISRVEADDLGVYYCFQGSHVPPTFGGGTKLEIKR | 
no binding | 0.731 |  | 10G1, purified recombinant, human IgG4 (antibody, V domains shown, Mouse variable regions on human IgG4 (S228P) and human kappa constant regions) VH: QVTLKESGPGILQSSQTLSLTCSFSGVSLSSSGMGVSWIRQPSGKGLEWLAHIYWDDEKHYNPSLKSRLTISKGASRNQVFLKIISVDTADTATYYCALRYYGYNSIMHYWGQGASVTVSS VL: DVLMTQTPLSLPVSLGDQASISCRSSESIVHSNGNTYLEWYLQKPGQSPKLLIYKVYNRFSGVPDRFSGSGSGTDFTLKISRVEAEDLGVYYCFQGSHVPPTFGGGTKLEIKR | 
no binding | 9.77 |  | 14A11, purified recombinant, human IgG4 (antibody, Mouse variable regions on human IgG4 (S228P) and human kappa constant regions) heavy: not shown light: DVLMTQSPLSLPVSLGDQASIFCRSNQSIVHSNGNTYFEWYLQKPGQSPKLLIYKVSNRFSGVPDRFSGSGSGTDFTLRISRVEAEDLGIYYCFQGSHVPPTFGGGTKLEIKRTVAAPSVFIFPPSDEQLKSGTASVVCLLNNFYPREAKVQWKVDNALQSGNSQESVTEQDSKDSTYSLSSTLTLSKADYEKHKVYACEVTHQGLSSPVTKSFNRGEC | 
 |  |  | 1F9, purified recombinant, human IgG4 (antibody, V domains shown, Mouse variable regions on human IgG4 (S228P) and human kappa constant regions) VH: EVKLEESGGGLVQPGGSMKLSCVASGFTFGSYWMSWVRQSPEKGLEWVAEIRLKSDNYAAHYAESVKGKFTISRDDSKSRLYLQMNSLRGEDTGIYYCTNAWFASWGQGTLVTVSA VL: DIVMSQSPSSLTVSVGEKVTMSCMSSQSLLYSKDQKNYLAWYQQKPGQSPTLLIYWASTRESGVPDRFTGSGSGTDFTLTISSVKAEDLAVYYCLQYYTYPYTFGGGTKLEIKR | binding result [4]: no binding (tested: 3 ug/ml)
 |  | no binding | 18F5, hybridoma supernatant (antibody, V domains shown, Mouse hybridoma antibody) VH: EVKLEESGGGLVQPGGSMKLSCVASGFTFGNYWMSWVRQSPEKGLEWVAEIRLKSDNYATHYAESVKGKFTISRDDSKSRLYLQMNSLRGEDTGLYYCTNAWFASWGQGTLVTVSA VL: DIVMSQSPSSLAVSVGEKVTMSCMSSQSLLYSKDQKNYLAWYQQKPGQSPKLLIYWASTRESGVPDRFTGSGSGTDFTLTISSVKAEDLAVYYCLQYYTYPYTFGGGTKLEIKR | 
 |  | no binding | 20A1, hybridoma supernatant (antibody, V domains shown, Mouse hybridoma antibody) VH: EVKLEESGGGLVQPGGSMKLSCIASGFTFSTYWMSWVRQSPEKGLEWVAEIRLKSENYATYYAESVKGKFIISRDDSKSRLYLQMNSLRAEDTGIYYCTNAWFANWGQGTLVTVSA VL: DIVMSQSPSSLVVSVGEKVTMSCKSSQNLLYSRDQKNYLAWYQQKPGQSPNLLIYWASTRESGVPDRFTGSGSGTDFSLTISSVKAEDLAVYYCLQYYSYPYTFGGGTKLEMKR | 
 |  |  | 20A1, purified recombinant, human IgG4 (antibody, V domains shown, Mouse variable regions on human IgG4 (S228P) and human kappa constant regions) VH: EVKLEESGGGLVQPGGSMKLSCIASGFTFSTYWMSWVRQSPEKGLEWVAEIRLKSENYATYYAESVKGKFIISRDDSKSRLYLQMNSLRAEDTGIYYCTNAWFANWGQGTLVTVSA VL: DIVMSQSPSSLVVSVGEKVTMSCKSSQNLLYSRDQKNYLAWYQQKPGQSPNLLIYWASTRESGVPDRFTGSGSGTDFSLTISSVKAEDLAVYYCLQYYSYPYTFGGGTKLEMKR | binding result [4]: no binding (tested: 3 ug/ml)
 |  | no binding | 2A4, hybridoma supernatant (antibody, V domains shown, Mouse hybridoma antibody) VH: EVKLEESGGGLVQPGGSMKLSCVASGFTFSTYWMSWVRQSPEKGLEWVAEIRLKSDNYATHYTESVKGKFTISRDDSKSRLYLQMNSLRVEDTGIYYCTNAWFAYWGQGTLVTVSA VL: DIVMSQSPSSLAVSVGEKFTMSCKSSQSLLYSRDQKNYLAWYQQQPGQSPKLLIYWASTRESGVPDRFTGSGSGTDFTLTISSVKTEDLAVYYCLQYYSYPYTFGGGTKLEIKR | 
 |  | no binding | 1F9, hybridoma supernatant (antibody, V domains shown, Mouse hybridoma antibody) VH: EVKLEESGGGLVQPGGSMKLSCVASGFTFGSYWMSWVRQSPEKGLEWVAEIRLKSDNYAAHYAESVKGKFTISRDDSKSRLYLQMNSLRGEDTGIYYCTNAWFASWGQGTLVTVSA VL: DIVMSQSPSSLTVSVGEKVTMSCMSSQSLLYSKDQKNYLAWYQQKPGQSPTLLIYWASTRESGVPDRFTGSGSGTDFTLTISSVKAEDLAVYYCLQYYTYPYTFGGGTKLEIKR | 
 |  | no binding | 13A10, hybridoma supernatant (antibody, V domains shown, Mouse hybridoma antibody) VH: DVQLQESGPGLVKPSQSLSLTCTVTGYSITSDYAWNWIRQFPGNKLEWMGYISYIGGIGYNPSLKSRISITRDTSKNQFFLHLNSVTTGDTATYYCARNGAMDFWGQGISVTVSS VL: DIVLTQSPASLAVSLGQRATISCKASQSVDYDGDSYMNWYQQKPGQPPKLLIYDASNLESGIPARFSGSGSGTDFTLNIHPVEEEDAATYYCQQSNEAPWTFGGGTKLEIKR | 
 |  | no binding | 21H1, hybridoma supernatant (antibody, V domains shown, Mouse hybridoma antibody) VH: DVQLQESGPGLVKPSQSLSLTCTVTGYSITSDYAWNWIRQFPGNKLEWMGYISYSGSTGYSPSLKSRISITRDTSKNQFFLHLNSVTTGDTATYYCARNGAMDYWGQGISVTVSS VL: DIVLTQSPASLAVSLGQRATISCKASQSVDYDGDSYMNWYQQKPGQPPKLLIYDASTLESGIPARFSGSGSGTDFTLNIHPVEEEDAATYYCQQNYEAPWTFGGGTKLEIKR | 
